Results from patent publication US20220144916A1.

Columns and labels:
[1] = molecular target: KJ1-26 clonotypic antibody
[2] = molecular target: OVA/I-Ad on murine A20 antigen presenting cells pulsed with OVA323-339 peptide (hen; mouse) (UniProt P01012)

EC50 (read off the curve) [1]: 0.03 nM | Half-life [2]: 5.5 min
Substance: DO11.10 scTCR-Fc fusion protein (Vβ-linker-Vα format)
